Where two headings read alike, the source gives them in different places.
Legend:
[1] = Midpoint potential determination, xanthine/xanthine oxidase reducing system; assay type: physicochemical, Escherichia coli; conditions: two-electron, pH 7.2, 25 °C, reference dye phenosafranine
[2] = pH 7.2, 25 °C; cited from earlier work

B1: Phe223Leu (protein, UniProt P0AEZ1 1-296, looked up, variant F223L)
5,10-methylenetetrahydrofolate …: MSFFHASQRDALNQSLAEVQGQINVSFEFFPPRTSEMEQTLWNSIDRLSSLKPKFVSVTYGANSGERDRTHSIIKGIKDRTGLEAAPHLTCIDATPDELRTIARDYWNNGIRHIVALRGDLPPGSGKPEMYASDLVTLLKEVADFDISVAAYPEVHPEAKSAQADLLNLKRKVDAGANRAITQFFFDVESYLRFRDRCVSAGIDVEIIPGILPVSNFKQAKKLADMTNVRIPAWMAQMFDGLDDDAETRKLVGANIAMDMVKILSREGVKDFHFYTLNRAEMSYAICHTLGVRPGL
[1]
  Midpoint Potential: −240 ± 3 mV

B2: Phe223Ala: Phe223Ala mutant of histidine-tagged E. coli methylenetetrahydrofolate reductase (protein, UniProt P0AEZ1 1-296, looked up, variant F223A)
5,10-methylenetetrahydrofolate …: MSFFHASQRDALNQSLAEVQGQINVSFEFFPPRTSEMEQTLWNSIDRLSSLKPKFVSVTYGANSGERDRTHSIIKGIKDRTGLEAAPHLTCIDATPDELRTIARDYWNNGIRHIVALRGDLPPGSGKPEMYASDLVTLLKEVADFDISVAAYPEVHPEAKSAQADLLNLKRKVDAGANRAITQFFFDVESYLRFRDRCVSAGIDVEIIPGILPVSNFKQAKKAADMTNVRIPAWMAQMFDGLDDDAETRKLVGANIAMDMVKILSREGVKDFHFYTLNRAEMSYAICHTLGVRPGL
modifications: histidine tag
[1]
  Midpoint Potential: −236 ± 3 mV

B3: Wild-type: wild-type histidine-tagged E. coli methylenetetrahydrofolate reductase (protein, UniProt P0AEZ1 1-296, looked up)
5,10-methylenetetrahydrofolate …: MSFFHASQRDALNQSLAEVQGQINVSFEFFPPRTSEMEQTLWNSIDRLSSLKPKFVSVTYGANSGERDRTHSIIKGIKDRTGLEAAPHLTCIDATPDELRTIARDYWNNGIRHIVALRGDLPPGSGKPEMYASDLVTLLKEVADFDISVAAYPEVHPEAKSAQADLLNLKRKVDAGANRAITQFFFDVESYLRFRDRCVSAGIDVEIIPGILPVSNFKQAKKFADMTNVRIPAWMAQMFDGLDDDAETRKLVGANIAMDMVKILSREGVKDFHFYTLNRAEMSYAICHTLGVRPGL
modifications: histidine tag
[2]
  Midpoint Potential: −237 ± 4 mV

Source: PMC2805098 (Biochemistry, 2009)
